Source: patent publication US6353153B1, “Enhanced transport with a plastid membrane transport protein” (priority 1996, dated 2002)

Tests used:
Assay type in all cases: cell-based, Escherichia coli
[1] = test system: β-lactamase transport in E. coli MM52 (secAts); assay: Sodium azide sensitivity of β-lactamase transport in MM52; details: MM52 strain, 30° C., two hours, sodium azide 0 to 1 mM
Protocol: Overnight cultures of MM52-Bce44B, MM52-Oee1-Dhfr, MC4100-Bce44B, and MC4100-Oee1-Dhfr cells were used as inocula for parallel experiments. These freshly inoculated cultures were grown at 30° C. for two hours in media containing increasing concentrations of sodium azide (from 0 to 1 MM). Cells were then harvested, and normalized according to cell number before analysis. […] Azide sensitivity characteristics were firther assessed by growing both wild-type and mutant bacterial lines in the media containing 0.5 mM sodium azide for 0, 1 and 2 hr.
Sensitivity of the bacterial strains to sodium azide was determined in the same manner as outlined in Oliver el al. (1990) Proc. Natl. Acad. Sci. USA 87:8227. Changes to β-lactamase transport activity in response to sodium azide was used as a monitor of differences in the protein translocation activity of Bce44B- versus Oee1-Ohfr-expressing cells. […]
The pBCE44B and pOEEIDHFR plasmids were introduced into E. coli strain MM52 (Oliver and Beckwith, (1981) Cell 25:765) by electroporation using the BioRad Gene Pulser and the supplied protocols for E. coli strains. […] The plasmid-harboring MM52 strains were grown in LB-ampicillin broth and analyzed in the same manner as the JM109(DE3) strains described above.

[2] = test system: β-lactamase translocation in E. coli JM109(DE3); assay: Immunoblot of transported and processed β-lactamase; details: per cell basis, four hours, ampicillin 50 μg to 3 mg/ml
Protocol: Changes to β-lactamase transport were monitored by two different approaches: 1) the ability to form colonies on solid LB-agar plates containing increasing concentrations of ampicillin (50 μg/ml to 3.0 mg/ml); and 2) the level of transported and processed β-lactamase detected by immunoblotting total protein samples of cells grown in LB-broth containing increasing ampicillin concentrations.
The same cells were also used to determine the level of transported β-lactamase grown in media containing increasing concentrations of ampicillin. Cultures were diluted 5× into LB broth with increasing amounts of ampicillin (50 μg/ml to 3.0 mg/ml) and allowed to grow up to 4 hours. The level of transported β-lactamase was monitored by immunoblotting analysis of samples taken at time intervals of 0 hr, 0.5 hr, 1.0 hr, 1.5 hr, 2.0 hr, 3 hr and 4 hr. Immunoblot analysis was performed on total cellular protein samples with anti-p-lactamase antibodies as outlined above.

[3] = test system: β-lactamase transport in E. coli JM109(DE3); assay: Ampicillin resistance, ability to form colonies on LB-agar plates with increasing ampicillin; details: solid agar media with increasing ampicillin
Source text: The enhancement of protein translocation was further investigated using the plasmid-borne multicopy gene, β-lactamase. See Example 14. β-lactamase protein levels are much higher than induced alkaline phosphatase making this system a more sensitive monitor of protein translocation without the complications posed by low phosphate induction. Like alkaline phosphatase, β-lactamase is translocated into the periplasm, where it detoxifies the antibiotic ampicillin, thereby conferring ampicillin-resistance to cells. Because the level of antibiotic resistance conferred also reflects the level of protein transport activity, the level of ampicillin resistance was determined for Bce44B expressing cells and compared to that of Oee1-Dhfr-expressing cells on solid agar media containing increasing concentrations of ampicillin. […] The Bce44B-expressing cells formed colonies with ampicillin concentrations as high as 3 mg/ml, whereas Oee1-Dhfr-expressing cells could not form colonies beyond 1 mg/ml.
Changes to β-lactamase transport were monitored by two different approaches: 1) the ability to form colonies on solid LB-agar plates containing increasing concentrations of ampicillin (50 μg/ml to 3.0 mg/ml); and 2) the level of transported and processed β-lactamase detected by immunoblotting total protein samples of cells grown in LB-broth containing increasing ampicillin concentrations. […]

B1: Bce44B: plastid transport protein, Brassica napus 44 kDa chloroplast envelope protein, member of Com44/Cim44, encoded by SEQ ID NO:1 (protein)
chain: MQTAMKTMMNQMNTQNSQFNNPGFPTGAGAGAGSPFPFPFPPQTSPTTSPFQPQSQSSGATVDLTATKVDRPPVSKPQPTPIPPTKSIEVYKPSVVVEENKAMKEEKNYAFEDVSPEETTKESPFSNYEEVSETSAPKETRLFDDVLQNGAAPANGATASDVFQSLGAGKGWAGGSVEVLEKMIEYPTFQKMLYPHLPEEMRNPESFKWVRKNPQYRQQLQDMLNNMSESGEWDKRMTETLKNFDPNSPEVKQGFDQLGLTPEEVISKIMENPDVSMAFQNPRVEAALMDCSENPMNIMKYQNDKEVMDVFNKISQLFPGLTG
[1]
  sodium azide concentration at which precursor form of β-lactamase appears: 0.25 to 0.375 mM
[2]
  level of processed β-lactamase compared with Oee1-Dhfr-expressing cells: higher
[3]
  ampicillin concentration up to which expressing cells form colonies: ≤ 3 mg/mL
